Measurements: paper PMC13408441, “Molecular regulation and physiological role of GOLPH3-mediated Golgi retention” (Nature Communications, 2026)
Changes are numbered by the printed parent chain. Names and notes keep the numbering of the source. “Also recorded” adds a separate entry of the source.

B1: D247A: GOLPH3 mutant D247A; recombinant in biophysics, transfected construct in cells (protein, UniProt Q9H4A6 1-298, looked up, variant D247A)
Golgi phosphoprotein 3: MTSLTQRSSGLVQRRTEASRNAADKERAAGGGAGSSEDDAQSRRDEQDDDDKGDSKETRLTLMEEVLLLGLKDREGYTSFWNDCISSGLRGCMLIELALRGRLQLEACGMRRKSLLTRKVICKSDAPTGDVLLDEALKHVKETQPPETVQNWIELLSGETWNPLKLHYQLRNVRERLAKNLVEKGVLTTEKQNFLLFDMTTHPLTNNNIKQRLIKKVQEAVLDKWVNDPHRMDRRLLALIYLAHASAVLENAFAPLLDEQYDLATKRVRQLLDLDPEVECLKANTNEVLWAVVAAFTK
B2: D247R: recombinant GOLPH3 mutant D247R (protein, UniProt Q9H4A6 1-298, looked up, variant D247R)
Golgi phosphoprotein 3: B1 Golgi phosphoprotein 3 with A247R
B3: D247A/D258A/D262A: GOLPH3 triple mutant D247A/D258A/D262A; recombinant in biophysics, transfected in cells (protein, UniProt Q9H4A6 1-298, looked up, variant D247A D258A D262A)
Golgi phosphoprotein 3: B1 Golgi phosphoprotein 3 with D258A, D262A
B4: D247R/D258R/D262R: recombinant GOLPH3 triple mutant D247R/D258R/D262R (protein, UniProt Q9H4A6 1-298, looked up, variant D247R D258R D262R)
Golgi phosphoprotein 3: B1 Golgi phosphoprotein 3 with A247R, D258R, D262R
B5: C84A: GOLPH3 S-acylation mutant C84A, transfected construct (protein, UniProt Q9H4A6 1-298, looked up, variant C84A)
Golgi phosphoprotein 3: B1 Golgi phosphoprotein 3 with C84A, A247D
B6: C108A: GOLPH3 S-acylation mutant C108A, transfected construct (protein, UniProt Q9H4A6 1-298, looked up, variant C108A)
Golgi phosphoprotein 3: B1 Golgi phosphoprotein 3 with C108A, A247D
B7: C122A: GOLPH3 S-acylation mutant C122A, transfected construct (protein, UniProt Q9H4A6 1-298, looked up, variant C122A)
Golgi phosphoprotein 3: B1 Golgi phosphoprotein 3 with C122A, A247D
B8: R90L: GOLPH3 mutant defective in PtdIns(4)P binding (protein, UniProt Q9H4A6 1-298, looked up, variant R90L)
Golgi phosphoprotein 3: B1 Golgi phosphoprotein 3 with R90L, A247D
B9: GOLPH3-C108A/C122A: GOLPH3 double S-acylation mutant C108A/C122A, transfected construct (protein, UniProt Q9H4A6 1-298, looked up, variant C108A C122A)
Golgi phosphoprotein 3: B1 Golgi phosphoprotein 3 with C108A, C122A, A247D

Tests used:
LCS = experiment: ITC of GOLPH3 mutants with LCS peptide; assay type: binding; settings: 25 °C, pH 8.0, relative to non-mutated GOLPH3
Description: (§1) Supplemental Material for Theodoropoulou, Nasrallah, et al 2026
(§2) Isothermal titration calorimetry
(§3) Isothermal titration calorimetry (ITC) experiments were performed on a MicroCal PEAQ-ITC (Malvern Panalytical), with GOLPH3 variants being in a buffer containing 250 mM NaCl, 50 mM Tris pH 8.0 and 1 mM TCEP. LCS peptides were synthesised and delivered as lyophilised powder (Genscript). The peptides were dissolved in the protein buffer and their concentrations were calculated based upon their absorbance at 280 nm and their corresponding molar extinction coefficient. Experiments consisted of titrations of a single 0.4 µL injection followed […]
(§4) GOLPH3 proteins at a 100 μM concentration. Experiments were performed at 25 °C in triplicate (n = 3), with injection duration of 4 s, injection spacing of 150 s, stir speed of 750 rpm, and reference power of 7 μcal/s. Data were processed and plotted using MicroCal PEAQ‐ITC Analysis Software and fitted to a one‐site binding model.
(§5) Circular Dichroism Spectroscopy
(§6) Circular Dichroism Spectra of GOLPH3 proteins (at 10 μM in 100 mM NaCl, 50 mM Tris pH 7.4 and 1 mM TCEP) were collected with a Chirascan V100 (AppliedPhotophysics), using a 1 mm path length cuvette, at 20 °C, in the 200-260 nm range. Thermal denaturation experiments […]
(§7) every 1 °C, with a temperature ramp speed of 1 °C/min and an equilibration time of […]
(§8) Table S2: Fits of CD spectra to fractions of secondary structure for Golph3 WT and various mutants of it, carried out with the BestSel server

[1] = CD secondary structure of GOLPH3 proteins (BestSel fits); assay type: physicochemical, human; settings: 10 μM, 100 mM NaCl, 50 mM Tris pH 7.4, 1 mM TCEP, 20 °C
Description: as §1
Isothermal titration calorimetry […]
as §5, §6, §7, §8

[2] = CD thermal denaturation of GOLPH3 proteins; assay type: physicochemical, human; settings: CD at 207 nm, 20 to 95 °C at 1 °C/min, 10 μM protein, 100 mM NaCl, 50 mM Tris pH 7.4, 1 mM TCEP
Description: as §1, §2, §3, §4, §5, §6, §7, §8

HeLa cells = experiment: Immunofluorescence of GOLPH3 Golgi localization; assay type: cell-based, human; settings: quantitative immunofluorescence
Description: as §1
(Sigma, E4382), 5 mL of 1% Phloxine B (Fluka, 28550), 360 mL of 95% ethanol, and 2 mL of glacial acetic acid. Slides were then washed in distilled water, dehydrated, cleared in xylene, and mounted using Eukitt mounting medium (Sigma-Aldrich).
For Alcian Blue staining, sections were deparaffinized, rehydrated, and incubated for 25 minutes at room temperature in 1% Alcian Blue (Sigma-Aldrich, A5268) dissolved in 3% acetic acid (pH 2.5). The solution was filtered prior to use and prepared by dissolving 5 g of Alcian Blue in 500 mL of 3% glacial acetic acid. After staining, slides were washed in running tap water for 5 minutes and briefly rinsed in distilled water. Nuclei were counterstained with 0.1% nuclear fast red (Vector Laboratories, H-3403) for 5 minutes, followed by rinsing, dehydration, clearing, and mounting with Eukitt. Acidic mucopolysaccharides and mucins […]
Immunofluorescence and confocal microscopy
HeLa GOLPH3-KO cells transfected with the different GOLPH3 constructs were plated at approximately 50% confluency post-transfection. Cells were washed with PBS, fixed in 4% paraformaldehyde (PFA) for 20 minutes, washed with PBS, quenched with 50 mM NH4Cl for 10 minutes, and washed again with PBS. Cells were permeabilized with 0.05% saponin in PBS for 5 minutes. Subsequently, cells were washed and blocked with 3% BSA and 0.05% saponin in PBS for 30 minutes. Primary antibodies (anti-GOLPH3 and anti-GM130) and secondary antibodies were diluted in the same buffer. After blocking, coverslips were washed and incubated with primary antibodies overnight at 4 °C, washed in PBS, and incubated for 45 minutes with secondary antibodies. Cells were then washed and stained with Hoechst for nuclear visualization. Finally, coverslips were mounted in Prolong Glass Antifade Mountant.
Images were acquired using a Zeiss LSM 980 Inverted microscope with a 63X objective, a pinhole size of 1 AU and at least 2 line-averaging or alternatively using Oympus Evident FV4000. Super-resolution images were taken using Zeiss LSM980 with Airyscan2 module, with 63×oil-immersion objectives. Images were processed using Fiji (ImageJ). Cis-to-trans Golgi linescans were recorded using the “Color Profiler” plugin (Color_Profiler. jar, https://imagej.nih.gov/ij/plugins/color -profiler.html) in Fiji software.
Forty-eight hours after transfection, cells were harvested by trypsinization, fixed 10 minutes in 4% PFA/PBS, washed, and resuspended in PBS containing 1% BSA.

GOLPH3-KO HeLa cells [3] = experiment: Targeted LC-MS/MS of glycosphingolipids in GOLPH3-KO HeLa expressing GOLPH3 mutants; assay type: cell-based, human
GOLPH3-KO HeLa cells [4] = experiment: 3H-palmitate metabolic labeling of GOLPH3 mutants; assay type: cell-based, human; settings: 3H-palmitic acid 3 h; for palmitoylation of GOLPH3 mutants: autoradiography after immunoprecipitation
Description: To detect palmitoylation, HeLa WT or GOLPH3-KO cells were transfected or not with different GOLPH3 constructs, incubated for 3 h in IM (Glasgow minimal essential medium buffered with 10 mM Hepes, pH 7.4) with 200 mCi/ml ^3H palmitic acid (9,10-^3H(N)) (American Radiolabeled Chemicals, Inc.). The cells were washed and directly lysed for immunoprecipitation with the anti-GOLPH3 rabbit antibody. […] After SDS-PAGE, the gel was incubated in a fixative solution (25% isopropanol, 65% H2O, 10% acetic acid), followed by a 30-min incubation with signal enhancer Amplify NAMP100 (GE Healthcare). […] Quantification of radioactive experiments was quantified using specific screens by autoradiography. The images shown for ^3H-palmitate labeling were however obtained using fluorography (indirect detection of radioactive emission by stimulated light emission from a fluorophore (Amplify) on film).

| Molecule | binding of GOLPH3 mutants to LCS (LCS) | % alpha [1] | % beta parallel [1] | % beta-antiparallel [1] | % others [1] | % turn [1] | Golgi localization of GOLPH3 mutants (HeLa cells) | other results |
| --- | --- | --- | --- | --- | --- | --- | --- | --- |
| B1 | reduced binding | 36% | 0% | 8% | 44% | 12% | – | – |
| B2 | reduced binding; also recorded: weaken or abrogate binding | 38% | 0% | 0% | 52% | 10% | – | Tm / melting temperature [2]: 57 °C |
| B3 | – | 40% | 0% | 0% | 47% | 13% | – | – |
| B4 | weaken or abrogate binding | 38% | 0% | 7% | 40% | 15% | – | Tm / melting temperature [2]: 57 °C |
| B5 | – | – | – | – | – | – | decreased Golgi localization | Golgi localization of GOLPH3 mutants (HeLa cells; listed as C84): reduced Golgi association; promotion of lipid glycosylation (GOLPH3-KO HeLa cells [3]): less effective than wild-type GOLPH3 at promoting lipid glycosylation; loss of palmitate labeling (GOLPH3-KO HeLa cells [4]; relative to wild-type GOLPH3): ~ 80% |
| B6 | – | – | – | – | – | – | increased Golgi localization | palmitoylation of GOLPH3 mutants (GOLPH3-KO HeLa cells [4]): modest effect |
| B7 | – | – | – | – | – | – | increased Golgi localization | palmitoylation of GOLPH3 mutants (GOLPH3-KO HeLa cells [4]): modest effect |
| B8 | – | – | – | – | – | – | largely abolished Golgi localization | – |
| B9 | – | – | – | – | – | – | – | promotion of lipid glycosylation (GOLPH3-KO HeLa cells [3]): displays active behavior |
